Each block holds one binder with its values, some of them ahead of it.
Legend:
[1] = biological target: T1, recombinant 302–359 fragment of human mesothelin (hMSLN) (human, UniProt Q13421 302-359, biotin on the AviTag); test: SPR
T1 chain: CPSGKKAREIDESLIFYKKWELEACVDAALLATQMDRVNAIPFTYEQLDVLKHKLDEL

[2] = biological target: T1, recombinant 302–359 fragment of human …; test: SPR
[3] = biological target: T2, recombinant 302–359 fragment of human mesothelin (hMSLN) (Homo sapiens, UniProt Q13421, biotin on the AviTag); test: SPR; Biacore T200; hMSLN 302–359 amine-coupled at about 700 RU on CM5; analytes 12.5 to 200 nM in HBS-EP, single cycle kinetics, 30 μL/min; Langmuir model; settings: both partners purified
T2 construct: Amine-coupled to a CM5 chip in SPR, captured on NeutrAvidin in ELISA; source: E. coli Origami B with pBirA, purified (Ni-NTA, Superdex 75); not shown: AviTag, C-terminal, kept

[4] = biological target: human mesothelin on the surface of Meso34-MSLN cells (human) (UniProt Q13421)
[5] = biological target: T1, recombinant 302–359 fragment of human …; test: SPR; bivalent model, kd1
[6] = biological target: T1, recombinant 302–359 fragment of human …; test: SPR; bivalent model, kd2
[7] = biological target: recombinant 302–359 fragment of human mesothelin (hMSLN) (human) (UniProt Q13421); test: SPR; Biacore T200; hMSLN 302–359 amine-coupled at about 700 RU on CM5; analytes 12.5 to 200 nM in HBS-EP, single cycle kinetics, 30 μL/min; bivalent model; apparent
[8] = biological target: human mesothelin on the surface of Meso34-MSLN cells (human) (UniProt Q13421); test: flow cytometry on cells; Meso34-MSLN and NK92CD16h cells incubated with increasing concentrations of BiKEs, 30 min at 4°C; streptavidin-PE; one binding site regression
[9] = biological target: T1, recombinant 302–359 fragment of human …; test: SPR
[10] = biological target: recombinant 302–359 fragment of human mesothelin (hMSLN) (human) (UniProt Q13421); test: SPR; Biacore T200; hMSLN 302–359 amine-coupled at about 700 RU on CM5; analytes 12.5 to 200 nM in HBS-EP, single cycle kinetics, 30 μL/min; Langmuir model
[11] = biological target: T1, recombinant 302–359 fragment of human …; test: SPR; bivalent model, kd1
[12] = biological target: T1, recombinant 302–359 fragment of human …; test: SPR; bivalent model, kd2
[13] = biological target: human mesothelin on the surface of Meso34-MSLN cells (human) (UniProt Q13421); test: flow cytometry on cells; Meso34 and Meso34-MSLN cells stained with a concentration range of N13 monomer (streptavidin-PE), N13 dimer (anti-6X His Tag-PE) or MORAb-009 (anti-human IgG Fc), 30 min at 4°C; EC50 by one binding site regression

Sequence of human mesothelin on the surface of Meso34-MSLN cells (human) (Q13421 other isoform, or with tags, fused parts or gaps): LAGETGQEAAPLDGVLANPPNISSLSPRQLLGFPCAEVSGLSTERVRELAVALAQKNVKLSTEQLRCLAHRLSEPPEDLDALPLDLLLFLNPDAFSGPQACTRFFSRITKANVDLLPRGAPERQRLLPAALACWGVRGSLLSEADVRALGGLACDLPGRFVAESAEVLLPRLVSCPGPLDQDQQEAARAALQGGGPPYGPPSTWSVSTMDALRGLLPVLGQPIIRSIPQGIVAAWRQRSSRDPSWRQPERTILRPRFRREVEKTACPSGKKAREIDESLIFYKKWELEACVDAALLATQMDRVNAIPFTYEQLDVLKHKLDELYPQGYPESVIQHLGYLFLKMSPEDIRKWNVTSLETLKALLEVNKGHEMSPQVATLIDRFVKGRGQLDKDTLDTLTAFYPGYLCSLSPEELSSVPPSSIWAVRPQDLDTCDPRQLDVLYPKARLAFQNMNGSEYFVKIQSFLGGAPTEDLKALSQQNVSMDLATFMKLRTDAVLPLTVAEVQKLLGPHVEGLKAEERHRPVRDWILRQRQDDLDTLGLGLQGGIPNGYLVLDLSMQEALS

koff [1]: 0.073 s⁻¹
B1: N18 Affitin (monomer) (designed binder)
chain: MRGSHHHHHHGSATKVKFKLFGEEKEVDISKIKKVERRTFHMDKTIVFMYDDNGKSGYGWVSEKDAPKELLEKLKLN
modifications: biotin on the AviTag

koff [2]: 0.804 s⁻¹
Kd [3]: 15.6 nM
B2: VHH A1 (anti-hMSLN VHH) (VHH)
VHH: DVQLQESGGGLVHPGGSLRLSCAASGIDLSLYRMRWYRQAPGKERDLVALITDDGTSYYEDSVKGRFTITRDNPSNKVFLQMNSLKPEDTAVYYCNAETPLSPVNYWGQGTQVTVSS

koff [1]: 0.214 s⁻¹
B3: N7 Affitin (monomer) (designed binder)
chain: MRGSHHHHHHGSATKVKFKYMGEEKEVDISKIKVVSRSVGPLGSFILFQYDDNGKMGRGFVSEKDAPKELLEKLKLN
modifications: biotin on the AviTag

koff [1]: 0.0647 s⁻¹
B4: N13 Affitin (monomer) (designed binder)
chain: MRGSHHHHHHGSATKVKFKVFGEEKEVDISKIKHVDRMNWRGLLYIRFSYDDNGKLGHGWVSEKDAPKELLEKLKLN
modifications: biotin on the AviTag

koff [5]: 0.136 s⁻¹
koff [6]: 0.000762 s⁻¹
Kd [7]: 0.831 nM
EC50 [8]: 7.45 nM
B5: C21(N13)2 bispecific NK cell engager (anti-CD16 VHH C21 fused to a homodimer of N13 Affitin) (designed binder)
chain: MEVQLVESGGELVQAGGSLRLSCAASGLTFSSYNMGWFRRAPGKEREFVASITWSGRDTFYADSVKGRFTISRDNAKNTVYLQMSSLKPEDTAVYYCAANPWPVAAPRSGTYWGQGTQVTVSSPSGQAGAAASESLFVSNHAYGSATKVKFKVFGEEKEVDISKIKHVDRMNWRGLLYIRFSYDDNGKLGHGWVSEKDAPKELLEKLKPSGQAGAAASESLFVSNHAYGSGATKVKFKVFGEEKEVDISKIKHVDRMNWRGLLYIRFSYDDNGKLGHGWVSEKDAPKELLEKLKLNRGSHHHHHHGSGLNDIFEAQKIEWHE
modifications: biotin on the AviTag
ED50 of NK92CD16h-mediated 51Cr cytotoxicity on Meso34-MSLN cells, effector/target ratio 10:1 [4]: 0.325 nM
ED50 of NK92CD16h-mediated 51Cr cytotoxicity on Meso34-MSLN cells, effector/target ratio 20:1 [4]: 0.277 nM
maximal NK92CD16h-mediated 51Cr cytotoxicity on Meso34-MSLN cells, effector/target ratio 10:1 [4]: 22.6%
maximal NK92CD16h-mediated 51Cr cytotoxicity on Meso34-MSLN cells, effector/target ratio 20:1 [4]: 38.9%

koff [9]: 0.0385 s⁻¹
Kd [10]: 67.1 nM
affinity for Meso34-hMSLN cells [8]: > 100 nM
B6: C21(N13)1 bispecific NK cell engager (anti-CD16 VHH C21 fused to one N13 Affitin) (designed binder)
chain: MEVQLVESGGELVQAGGSLRLSCAASGLTFSSYNMGWFRRAPGKEREFVASITWSGRDTFYADSVKGRFTISRDNAKNTVYLQMSSLKPEDTAVYYCAANPWPVAAPRSGTYWGQGTQVTVSSPSGQAGAAASESLFVSNHAYGSATKVKFKVFGEEKEVDISKIKHVDRMNWRGLLYIRFSYDDNGKLGHGWVSEKDAPKELLEKLKKLNRGSHHHHHHGSGLNDIFEAQKIEWHE
modifications: biotin on the AviTag
ED50 of NK92CD16h-mediated 51Cr cytotoxicity on Meso34-MSLN cells, effector/target ratio 10:1 [4]: 5.62 nM
ED50 of NK92CD16h-mediated 51Cr cytotoxicity on Meso34-MSLN cells, effector/target ratio 20:1 [4]: 3.11 nM
maximal NK92CD16h-mediated 51Cr cytotoxicity on Meso34-MSLN cells, effector/target ratio 10:1 [4]: 19.2%
maximal NK92CD16h-mediated 51Cr cytotoxicity on Meso34-MSLN cells, effector/target ratio 20:1 [4]: 26.1%

koff [11]: 0.0573 s⁻¹
koff [12]: 0.000767 s⁻¹
Kd [7]: 0.57 nM
fold reduction of the dissociation rate constant (kd) against the N13 monomer [7]: 84 fold
EC50 [13]: 2.22 nM
fold increase in affinity for cellular hMSLN against the N13 monomer [13]: 1000 fold
B7: N13 Affitin homodimer (two N13 Affitins linked by a 20-amino-acid HMA linker) (designed binder)
chain: MRGSHHHHHHGSATKVKFKVFGEEKEVDISKIKHVDRMNWRGLLYIRFSYDDNGKLGHGWVSEKDAPKELLEKLKPSGQAGAAASESLFVSNHAYGSGATKVKFKVFGEEKEVDISKIKHVDRMNWRGLLYIRFSYDDNGKLGHGWVSEKDAPKELLEKLKLGSGLNDIFEAQKIEWHE

koff [1]: 0.288 s⁻¹
B8: N23 Affitin (monomer) (designed binder)
chain: MRGSHHHHHHGSATKVKFKLFGEEKEVDISKIKRVERRAIQAASYIAFAYDDNGKIGHGWVSEKDAPKELLEKLKLN
modifications: biotin on the AviTag

Reference: article PMC12752793, “Development of potent Affitin-based bispecific NK cell engagers for the therapy of MSLN-expressing cancers” (Molecular Therapy Oncology, 2025)
